# Experiments:
# [1] = biological target: the molecule itself; test: SDS-PAGE with tryptic digestion and mass spectrometry of the bands
# [2] = biological target: the molecule itself; test: SDS-PAGE and Western blot
Protein,stoichiometry N [1],stoichiometry N [2]
Cryptococcus neoformans recombinant antiphagocytic protein 1 (rApp1) (natural protein) MMSSATAELCFDCANCVEMLPKGTTKSVTRPEILERLTRIENHIEVQTALLSTMAASKDYKKKVYTDDDDELEEPEVQLCNMTCEMAALKTYKPQTKVSNHKIVIEAALGRLDHVNGESSIRWAQSVILGLQAAETLQNDKQMMELARVIGCLEACELRWAGDWRAGVASITLKELRTLMI,2,–
App1 in total protein from C. neoformans WT (H99) (natural protein) MMSSATAELCFDCANCVEMLPKGTTKSVTRPEILERLTRIENHIEVQTALLSTMAASKDYKKKVYTDDDDELEEPEVQLCNMTCEMAALKTYKPQTKVSNHKIVIEAALGRLDHVNGESSIRWAQSVILGLQAAETLQNDKQMMELARVIGCLEACELRWAGDWRAGVASITLKELRTLMI,–,2

# From article PMC5125079 (Mycopathologia, 2011)
